Laboratory results as given in PMC9519043.

Assays:
[1] = target: SARS-CoV-2 virus particle (S protein), native, patient saliva (SARS-CoV-2 (clinical isolates)) (UniProt P0DTC2); test: microfluidic affinity capture, RT-qPCR; details: 5' amino C12 linker and TEG spacer 9; 3' inverted dT; SPR (BIAcore T200, […], pH not stated; chip capture from buffer or saliva at 20 ul/min
[2] = test system: HRSV virus particle (Human respiratory syncytial virus strain A2 (ATCC VR-1540)); test: microfluidic affinity capture, RT-qPCR; details: SPR (BIAcore T200, […], pH not stated

Row | Sequence | binding signal [1] [% recovery] | binding signal [2] [% recovery]
1 | CAGCACCGACCTTGTGCTTTGGGAGTGCTGGTCCAAGGGCGTTAATGGACA [51-nt SARS-CoV-2 aptamer, chip form] | 94.7 | 
2 | TAGGGAAGAGAAGGACATATGATAGTGCGGTGAGCCGTCGGACATACAAATACTTGACTAGTACATGACCACTTGA [HRSV aptamer (Percze et al.), chip form] |  | 74.2
